Changes are numbered by the printed parent chain.
B1: L11-3 (protein)
chain 1: GQQVMQIPQYQHVQEGEDFTTYCNSSTTLSNIQWYKQRPGGHPVFLIQLVKSGEVKKQKRLTFQFGEAKKNSSLHITATQTTDVGTYFCADPDGLIFGQGTELSVKP
chain 2: DAGVIQSPRHEVTEMGQEVTLRCKPISGHNSLFWYRQTMMRGLELLIYFNNNVPIDDSGMPEDRFSAKMPNASFSTLKIQPSEPRDSAVYFCASSLGAGAGYGYTFGSGTRLTVV
B2: L11-6 (protein)
chain 1: GIQVEQSPPDLILQEGANSTLRCNFSDSVNNLQWFHQNPWGQLINLFYIPSGTKQNGRLSATTVATERYSLLYISSSQTTDSGVYFCAVDGGNKLVFGAGTILRVKS
chain 2: B1 chain 2 with A100S, Y102W, G103E, Y104Q, T105Y, S108P, V115T
B3: L208 (TCR, V domains shown)
Valpha: KQEVTQIPAALSVPEGENLVLNCSFTDSAIYNLQWFRQDPGKGLTSLLLIQSSQREQTSGRLNASLDKSSGRSTLYIAASQPGDSATYLCAVLMDSNYQLIWGAGTKLIIKP
Vbeta: DAGITQSPRYKITETGRQVTLMCHQTWSHSYMFWYRQDLGHGLRLIYYSAAADITDKGEVPDGYVVSRSKTENFPLTLESATRSQTSVYFCASSEDGMNTEAFFGQGTRLTVV

How the values were obtained:
[1] = target: EBV LMP2 peptide on HLA-A11 (human); test: intracellular IFN-gamma; peptide titration on K562-A11, E:T 1:1, overnight; FIG. 9; full-length, on cells; conditions: chains Valpha:Vbeta
[2] = target: T1, peptide on HLA-A*02:01 (human); test: intracellular IFN-gamma; peptide titration on APCs, E:T 1:1, overnight; FIG. 6F; full-length, on cells
T1 peptide: SLGGLLTMV

[3] = target: T2, EBV LMP2 peptide on HLA-A*02:01 (human); test: as above
T2 peptide: CLGGLLTMV

[4] = target: T1, peptide on HLA-A*02:01; test: intracellular IFN-gamma; peptide titration on APCs, E:T 1:1, overnight; a different experiment, FIG. 6G; full-length, on cells
[5] = target: T2, EBV LMP2 peptide on HLA-A*02:01; test: as above

| Binder | EC50 of peptide [1] [nM] | EC50 of peptide [2] [µg/mL] | EC50 of peptide [3] [µg/mL] | EC50 of peptide [4] [µg/mL] | EC50 of peptide [5] [µg/mL] |
| --- | --- | --- | --- | --- | --- |
| B1 | 0.3 | – | – | – | – |
| B2 | 2 | – | – | – | – |
| B3 | – | 0.0183 | 0.0392 | 0.125 | 0.261 |

From patent US20230227527A1 (published 2023)
